Data published in PMC11606499, “Molecular principles of the assembly and construction of a carboxysome shell” (Science Advances, 2024).
Numbering of substitutions follows the chain as printed. Names and notes keep the numbering of the source.

T1: C-terminal domain of CsoS2 (CsoS2-C) (Halothiobacillus neapolitanus c2, UniProt O85041 604-869)
T1 construct: CsoS2, scaffolding/linker protein of the α-carboxysome, Halothiobacillus neapolitanus c2; source: E. coli BW25113, midi-shell operon or CsoS1C-based mini-shell operon, in purified shells
T1 sequence (looked up): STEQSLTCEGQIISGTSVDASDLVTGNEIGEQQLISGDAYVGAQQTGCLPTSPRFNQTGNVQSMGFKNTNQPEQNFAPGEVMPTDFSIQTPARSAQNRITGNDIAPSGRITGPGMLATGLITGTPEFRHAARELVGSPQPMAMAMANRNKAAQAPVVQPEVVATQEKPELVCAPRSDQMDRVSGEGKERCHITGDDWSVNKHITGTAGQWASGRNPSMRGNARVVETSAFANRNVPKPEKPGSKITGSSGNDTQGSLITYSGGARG

T2: CsoS4A (untagged, coexpressed with His-tagged CsoS4B) (Halothiobacillus neapolitanus c2, UniProt O85043 1-83)
T2 construct: CsoS4A, Halothiobacillus neapolitanus c2; gene amplified from the cso-2 operon, the His tag stands on CsoS4B only; source: E. coli BL21 (DE3), pET-22b csoS4A-csoS4B, co-purified with His-tagged CsoS4B (Ni-NTA, Superdex 200)
T2 sequence: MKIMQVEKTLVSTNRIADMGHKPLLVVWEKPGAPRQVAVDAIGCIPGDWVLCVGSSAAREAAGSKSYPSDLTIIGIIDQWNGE

B1: His-tagged CsoS1B (expressed alone or coexpressed with CsoS1A or CsoS1C) (natural protein, Halothiobacillus neapolitanus c2, UniProt P45690 1-110, looked up)
chain: MATTHGIALGMIETRGLVPAIEAADAMTKAAEVRLVGRSFVGGGYVTVMVRGETGAVNAAVRAGADACERVGDGLVAAHIIARVHSEVEIILPETPEDSDSAWCIANLNS
notes: CsoS1B, Halothiobacillus neapolitanus c2; gene fragment amplified from the cso-2 operon; Six copies when expressed alone; about 1.5 copies per hexamer in the coexpressed CsoS1A/B sample; source: E. coli BL21 (DE3), pET-22b, purified (Ni-NTA, Superdex 200); not shown: His tag, C-terminal, kept
B2: CsoS1A (in recombinant α-carboxysome midi-shells) (natural protein, Halothiobacillus neapolitanus c2)
chain: MADVTGIALGMIETRGLVPAIEAADAMTKAAEVRLVGRQFVGGGYVTVLVRGETGAVNAAVRAGADACERVGDGLVAAHIIARVHSEVENILPKAPQA
notes: CsoS1A, hexameric shell protein of the α-carboxysome, Halothiobacillus neapolitanus c2; the gene as it stands in the midi-shell operon derived from the synthetic cso-2 operon; CsoS1A, CsoS1B and CsoS1C could not be told apart in the symmetrised maps; also called CsoS1 hexamer; BMC-H; source: E. coli BW25113, midi-shell operon (L-arabinose induced), in purified shells
B3: CsoS1C (in the CsoS1C-based T = 9 mini-shell) (natural protein, Halothiobacillus neapolitanus c2)
chain: B2 chain with D3A, Q97E
notes: CsoS1C, shell hexamer paralog, Halothiobacillus neapolitanus c2; differs from CsoS1A at the 3rd and 97th amino acids; the gene as it stands in the mini-shell operon; source: E. coli BW25113, CsoS1C-based mini-shell operon, in purified shells
B4: CsoS1C (individually expressed, C-terminal His tag) (natural protein, Halothiobacillus neapolitanus c2)
chain: B2 chain with D3A, Q97E
notes: CsoS1C, Halothiobacillus neapolitanus c2; gene fragment amplified from the cso-2 operon; source: E. coli BL21 (DE3), pET-22b, purified (Ni-NTA, Superdex 200)
B5: His-tagged CsoS1A (individually expressed) (natural protein, Halothiobacillus neapolitanus c2)
chain: B2 chain
notes: CsoS1A, Halothiobacillus neapolitanus c2; gene fragment amplified from the cso-2 operon; source: E. coli BL21 (DE3), pET-22b, purified (Ni-NTA, Superdex 200); not shown: His tag, C-terminal, kept
B6: CsoS1A (untagged, coexpressed with His-tagged CsoS1B) (natural protein, Halothiobacillus neapolitanus c2)
chain: B2 chain
notes: CsoS1A, Halothiobacillus neapolitanus c2; gene amplified from the cso-2 operon, the His tag stands on CsoS1B only; also called S1A-S1B (coexpressed sample); source: E. coli BL21 (DE3), pET-22b csoS1A-csoS1B, co-purified with His-tagged CsoS1B (Ni-NTA, Superdex 200)
B7: CsoS1C (untagged, coexpressed with His-tagged CsoS1B) (natural protein, Halothiobacillus neapolitanus c2)
chain: B2 chain with D3A, Q97E
notes: CsoS1C, Halothiobacillus neapolitanus c2; gene amplified from the cso-2 operon, the His tag stands on CsoS1B only; source: E. coli BL21 (DE3), pET-22b csoS1C-csoS1B, co-purified with His-tagged CsoS1B (Ni-NTA, Superdex 200)
B8: CsoS4A (in recombinant α-carboxysome shells) (natural protein, Halothiobacillus neapolitanus c2)
chain: T2 sequence
notes: CsoS4A, pentameric vertex protein of the α-carboxysome shell, Halothiobacillus neapolitanus c2; the gene as it stands in the shell operon; All pentamers of the shell models were assigned to CsoS4A; also called CsoS4 pentamer; BMC-P; source: E. coli BW25113, midi-shell operon or CsoS1C-based mini-shell operon, in purified shells
B9: CsoS4A (individually expressed, C-terminal His tag) (natural protein, Halothiobacillus neapolitanus c2)
chain: T2 sequence
notes: CsoS4A, Halothiobacillus neapolitanus c2; gene fragment amplified from the cso-2 operon; In solution pentamers and other aggregation forms; source: E. coli BL21 (DE3), pET-22b, purified (Ni-NTA, Superdex 200)
B10: CsoS4B (C-terminal His tag; expressed alone or coexpressed with CsoS4A) (natural protein, Halothiobacillus neapolitanus c2, UniProt O85044 1-81, looked up)
chain: MEVMRVRSDLIATRRIPGLKNISLRVMEDATGKVSVACDPIGVPEGCWVFTISGSAARFGVGDFEILTDLTIGGIIDHWVT
notes: CsoS4B, Halothiobacillus neapolitanus c2; gene fragment amplified from the cso-2 operon; Five copies when expressed alone; source: E. coli BL21 (DE3), pET-22b, purified (Ni-NTA, Superdex 200)

Assays:
[1] = molecular target: the molecule itself; experiment: SEC + other: dynamic light scattering; Superdex 200 in 50 mM tris-HCl pH 8.0, 100 mM NaCl; DLS on DynaPro NanoStar, in triplicate; proteins expressed alone or coexpressed and purified by Ni-NTA through the His tag of one of them
[2] = molecular target: T1, C-terminal domain of CsoS2 (CsoS2-C); experiment: cryo-EM structure; purified midi-shells assembled in E. coli from the coexpressed proteins; T = 9, T = 9 Q = 12, T = 13, T = 16 and T = 19 shells at 2.3, 2.99, 2.93, 2.75 and 3.04 Å, symmetry imposed; details: both partners purified
[3] = molecular target: the molecule itself; experiment: as above
[4] = molecular target: T1, C-terminal domain of CsoS2 (CsoS2-C); experiment: cryo-EM structure; purified CsoS1C-based T = 9 mini-shell assembled in E. coli from the coexpressed proteins; 1.8 Å; details: both partners purified
[5] = molecular target: the molecule itself; experiment: as above
[6] = molecular target: the molecule itself; experiment: crystal structure; crystals of the purified coexpressed CsoS1A and His-tagged CsoS1B sample, hanging drop, 18°C; 2.1 Å
[7] = molecular target: B1; experiment: SDS-PAGE of washed crystals; crystals of the coexpressed CsoS1A and His-tagged CsoS1B sample, washed with buffer for various times before SDS-PAGE; details: both partners purified
[8] = molecular target: B1; experiment: SEC + other: dynamic light scattering; Superdex 200 in 50 mM tris-HCl pH 8.0, 100 mM NaCl; DLS on DynaPro NanoStar, in triplicate; proteins expressed alone or coexpressed and purified by Ni-NTA through the His tag of one of them; details: both partners purified
[9] = molecular target: B3; experiment: cryo-EM structure; purified CsoS1C-based T = 9 mini-shell assembled in E. coli from the coexpressed proteins; 1.8 Å; details: both partners purified
[10] = molecular target: B2; experiment: cryo-EM structure; purified midi-shells assembled in E. coli from the coexpressed proteins; T = 9, T = 9 Q = 12, T = 13, T = 16 and T = 19 shells at 2.3, 2.99, 2.93, 2.75 and 3.04 Å, symmetry imposed; details: both partners purified
[11] = molecular target: the molecule itself; experiment: SEC; Superdex 200 in 50 mM tris-HCl pH 8.0, 100 mM NaCl; individually expressed CsoS4 proteins
[12] = molecular target: T2, CsoS4A (untagged, coexpressed with …); experiment: SEC + other: dynamic light scattering; Superdex 200 in 50 mM tris-HCl pH 8.0, 100 mM NaCl; DLS on DynaPro NanoStar, in triplicate; proteins expressed alone or coexpressed and purified by Ni-NTA through the His tag of one of them; details: both partners purified

## B1
[1]
  stoichiometry N: 6

## B2
[2]
  binding result: binds
[3]
  stoichiometry N: 6

## B3
[4]
  binding result: binds
[5]
  stoichiometry N: 6

## B4
[1]
  stoichiometry N: 6

## B5
[1]
  stoichiometry N: 6

## B6
[6]
  stoichiometry N: 6
[7]
  stoichiometry N: ~3 CsoS1A per CsoS1B

## B7
[8]
  binding result: binds

## B8
[9]
  binding result: binds
[10]
  binding result: binds
[3]
  stoichiometry N: 5

## B9
[11]
  stoichiometry N: 5

## B10
[11]
  stoichiometry N: 5
[12]
  binding result: binds
